Measurements reported in paper PMC6377692 (EJNMMI Research, 2019).
Bridge positions count the residues as written; N and C are the ends. Square brackets hold non-standard residues; d marks the D form. Peptide text beside a SMILES is read from it. * marks the point of attachment. DO3A(CH2CH2SO2CH2CH2) = O=C(O)CN1CCN(CCS(=O)(=O)CC*)CCN(CC(=O)O)CCN(CC(=O)O)CC1; Ala(4-thiazolyl) = N[C@@H](Cc1cscn1)C(=O)O

Columns and labels:
[1] = rat in vivo distribution (ex vivo organ counting); parameters: species or system Sprague Dawley rats; settings: male, Sprague Dawley, iv, total radioactivity, i.v.
Description: The in vivo distribution over time was performed to identify the optimal time point for an in vivo blocking study and to calculate the residence time for dosimetry (see detail below). Thus, measurement at more time points was prioritized over repetitions at individual time points.
The animals were kept at a constant temperature (25 °C) and humidity (50%) in a 12-h light-dark cycle. Food and water were provided ad libitum.
Each radiotracer was administered into the tail vein of conscious animals as a bolus in 0.5–0.6 mL of PBS (pH 7.4) as vehicle. […] Given the constraints of the specific radioactivity for each radioligand, the dosing was designed to minimize the given peptide mass (in order to stay below mass effect levels) while still yielding enough radioactive signal for well counter measurements.
At pre-determined post injection time points (5, 10, 20, 40, 60, 90, 120, and 180 min), two animals per each point were euthanized by CO2. Tissues were immediately extracted and weighed, and the radioactive content was measured in the well counter. […] The well counter readings were decay corrected to the time of injection and the mass of the extracted tissues and expressed as Bq/cc. […]

[2] = test system: GCGR in NHP liver sections; assay: in vitro autoradiography, liver sections; format: binding, cynomolgus monkey (NHP)
Description: Liver and pancreas tissues were collected post-mortem from cynomolgus monkeys (NHP) and Sprague Dawley rats. The use of animal tissues collected post-mortem was approved by the Animal Research Ethical Committee of the Uppsala Region and was performed according to the Uppsala university guidelines on animal experimentation (UFV 2007/724).
Sections were added in duplicates in each individual assay, and each experiment was repeated at least three times with different batches of radioligand, except for rat sections that were only performed in one assay.
After incubation, the sections were washed three times in 150 mL PBS. Sections were carefully dried at 37 °C and then exposed against a digital phosphorimager plate overnight together with a 10-μl droplet of radioactive reference (cross-calibrated against a gamma counter) on an absorbent paper attached to an object glass. The phosphor imager plates were scanned using a Cyclone Plus Phosphor imager (Perkin Elmer) at 600 dpi, and the resulting autoradiograms analyzed by ImageJ software (NIH, Bethesda). Pixel values in counts/mm^2 were converted to Bq/mm^2 by the included reference. Bq/mm^2 was further converted to fmol/mm^2 by the known specific radioactivity (fmol/Bq) of each batch of radiopharmaceutical.

[3] = data not shown

**Q.** What does the source list for CC[C@H](C)[C@H](NC(=O)[C@H](Cc1ccccc1)NC(=O)[C@H](CCC(=O)O)NC(=O)[C@@H]1CCCCNC(=O)CC[C@H](NC(=O)[C@H](CC(=O)O)NC(=O)[C@H](CC(C)C)NC(=O)[C@H](CCC(N)=O)NC(=O)[C@H](CCCCN)NC(=O)[C@H](CO)NC(=O)[C@H](Cc2ccc(O)cc2)NC(=O)[C@H](CC(=O)O)NC(=O)[C@H](CO)NC(=O)[C@@H](NC(=O)[C@H](Cc2ccccc2)NC(=O)[C@@H](NC(=O)CNC(=O)[C@H](CCC(N)=O)NC(=O)[C@@H](CO)NC(=O)[C@@H](N)Cc2cscn2)[C@@H](C)O)[C@@H](C)O)C(=O)N[C@@H](CCC(N)=O)C(=O)N[C@@H](CCCNC(=N)N)C(=O)N[C@@H](C)C(=O)N1)C(=O)N[C@@H](CCC(=O)O)C(=O)N[C@@H](Cc1c[nH]c2ccccc12)C(=O)N[C@@H](CC(C)C)C(=O)N[C@@H](CC(C)C)C(=O)N[C@@H](C)C(=O)N[C@H](C(=O)NCC(=O)N1CCC[C@H]1C(=O)N[C@@H](CCC(=O)O)C(=O)N[C@@H](CO)C(=O)NCC(=O)N[C@@H](C)C(=O)N1CCC[C@H]1C(=O)N1CCC[C@H]1C(=O)N1CCC[C@H]1C(=O)N[C@@H](CO)C(=O)N[C@@H](CSCCS(=O)(=O)CCN1CCN(CC(=O)O)CCN(CC(=O)O)CCN(CC(=O)O)CC1)C(N)=O)[C@@H](C)O [[^68Ga]Ga-DO3A-S01-GCG, metal not drawn] (H-[Ala(4-thiazolyl)][dS]QGTFTSDYSKQLDEQRAKEFIEWLLATGPESGAPPPSC(DO3A(CH2CH2SO2CH2CH2))-NH2; lactam 16-20)?
**A.** SUV ([1]; liver, 3.6 ug/kg, after 20 min, read-out: uptake in the liver, plateau): 3 SUV; tissue to tissue ratio ([1]; liver/blood, after 90 min): > 30; effect of GLP-1 in excess on tracer binding to liver sections ([2]; 1 μM GLP-1): did not induce inhibition; inhibition of tracer binding to liver sections by co-incubation with own precursor peptide ([2]; 10 μM precursor): did not increase the degree of inhibition; inhibition of tracer binding to liver sections by co-incubation with GCG ([2]; 5–10 nM tracer, 10 μM GCG, 60 min RT, n = 3 (S01), n = 4 (S02)): > 60%; exposure [3]: 1570 ng·h/mL; plasma t½ [3]: 15 min
